The values that follow come from article PMC4917879 (Biochemistry, 2016).

Data set [1] concerns the target T1, Formate dehydrogenase from Candida boidinii (CbFDH) ([Candida] boidinii, UniProt A0A0A1EQY0).
T1 sequence (A0A0A1EQY0 1-364): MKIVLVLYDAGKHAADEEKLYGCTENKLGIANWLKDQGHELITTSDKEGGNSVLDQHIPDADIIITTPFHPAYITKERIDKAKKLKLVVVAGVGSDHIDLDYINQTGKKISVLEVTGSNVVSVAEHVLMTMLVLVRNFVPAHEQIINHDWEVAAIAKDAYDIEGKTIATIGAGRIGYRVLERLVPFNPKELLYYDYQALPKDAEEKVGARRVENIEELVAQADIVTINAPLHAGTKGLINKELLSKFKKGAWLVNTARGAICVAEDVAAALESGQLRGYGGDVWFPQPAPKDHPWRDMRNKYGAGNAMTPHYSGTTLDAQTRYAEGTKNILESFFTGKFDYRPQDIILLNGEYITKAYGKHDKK
Nature of the data set: ITC and crystal structure of the ternary complex with azide at […] Å. In kind it is binding.

Substrate in the data set “purified protein”: O=CO
Description: purified protein. The following applies: NAD+. The class given is biochemical, [Candida] boidinii.

A word on the Kd: it is a measure of binding affinity in units of concentration. The low end stands for tighter binding, the high end for weaker binding. Turning to `NC(=O)c1ccc[n+]([C@@H]2O[C@H](COP(=O)([O-])OP(=O)(O)OC[C@H]3O[C@@H](n4cnc5c(N)ncnc54)[C@H](O)[C@@H]3O)[C@@H](O)[C@H]2O)c1` [NAD+], the Kd in data set [1] is 92 ± 4 µM.

B1: Formate dehydrogenase from Candida boidinii (CbFDH) ([Candida] boidinii) (protein)
chain: T1 sequence (A0A0A1EQY0 1-364)
A word on the kcat: it is the number of substrate molecules converted per active site and unit of time at saturation. A word on the kcat/Km: it is the second-order rate constant that governs catalysis at low substrate concentration. Take B1: in the data set “purified protein”, the kcat stood at 5.6 ± 0.2 s⁻¹ and the kcat/Km stood at 1400 ± 200 M⁻¹ s⁻¹.
